These results are taken from patent US20160053277A1, “Compositions Having Dicamba Decarboxylase Activity and Methods of Use” (PIONEER HI-BRED INTERNATIONAL, INC., priority 2013, published 2016).

Experiment [1] can be described thus: Shuffled variant libraries: 14CO2 capturing assay in 384-well format. As to conditions: decarboxylation activity (carbon dioxide released) compared with unmutated backbone protein SEQ ID NO 133 (DDEC0201).
Experiment [2] can be described thus: Saturation mutagenesis of SEQ ID NO:109: dicamba decarboxylation activity of point mutants (carbon dioxide released). As to conditions: decarboxylation activity (carbon dioxide released) of point mutant compared with unmutated backbone protein; backbone SEQ ID NO: 109.

B1: 148 (protein)
chain: MAQGKEALEEHFAIPETLNDSAGFVPGDYWKELQHRLLDIQDTRLKLMDAHQIETMILSLAAVGVQAIPDRRKAIEIARRANDMLAEECAKRPDRFLAFAALPLQDVDAASEELQRTVNTLGFVGALVNGFSVEGDGQTPLYYDLPQYRPFWGEVEKLDVPFYLHPRNPLPQDSRIYDGHPWLLGPTWAFAQETAVHALRLMASGLFDEHPRLNIILGHLGEGLPYMMYRIDHRIAWVKLPPRYPAKRRFMDYFNENFHITTSGNFRTQTLIDAILEIGADRILFSTDWPFENIDHAAAWFNATSIAEADRVKIGRTNARRLFKLDGA
modifications: Dicamba decarboxylase variant
For the molecule B1, the “Fold Activity” value in experiment [1] is listed as 0.8; in experiment [2], 1.5.

B2: 145 (protein)
chain: MAQGKVALEEHFAIPETLQDSAGFVPGDYWKELQHRLLDIQDTRLKLMDAHGIETMILSLAAPAVQAIPDRRKAIEIARRANDFLAEECAKRPDRFLAFAALPLQDPDAATEELQRCVNDLGFVGALVNGFSVEGDGQTPLYYDLPQYRPFWGEVEKLDVPFYLHPRNPLPQDSRIYDGHPWLLGPTWAFAQETAVHALRLMASGLFDEHPRLNIILGHMGEGLPYMMYRIDHRIAWVKLPPRYPAKRRFMDYFNENFHITTSGNFRTQTLIDAILEIGADRILFSTDWPFENIDHATDWFNATSIAEADRVKIGRTNARRLFKLDGA
modifications: Dicamba decarboxylase variant
For B2, the “Fold Activity” value in experiment [1] was found to be 1.1; in experiment [2], 1.2.

B3: 149 (protein)
chain: MAQGKVALEEHFAIPETLQDSAGFVPSEYLKELQHRLLDIQDTRLKLMDAHGIETMILSLAAPAVQAIPDRRKAIEIARRANDMLAEECAKRPDRFLAFAALPLQDPDAATEELQRCVNTLGFVGALVNGFSVEGDGQTPLYYDLPQYRPFWGEVEKLDVPFYLHPRNPLPQDSRIYDGHPWLLGPTWAFAQETAVHALRLMASGLFDEHPRLNIILGHLGEGLPYMMYRIDHRIAWVHEPPRYPAKRRFMDYFNENFHITTSGNFRTQTLIDAILEIGADRILFSTDWPFENIDHAADWFNATSIAEADRVKIGRTNARRLFKLDGD
modifications: Dicamba decarboxylase variant
Regarding B3, the figures for the “Fold Activity” value in experiment [1] and in experiment [2] were 1.1 and 1.6, respectively.

B4: 150 (protein)
chain: MAQGKVALEEHFAIPETLQDSAGFVPGDYWKELQHRLLDIQDTRLKLMDAHGIETMILSLAAPAVQAIPDRRKAIEIARRANDFLAEECAKRPDRFLAFAALPLQDPDAATEELQRTVNDLGFVGALVNGFSQEGDGQTPLYYDLPQYRPFWGEVEKLDVPFYLHPRNPLPQDSRIYDGHPWLLGPTWAFAQETAVHALRLMASGLFDEHPRLNIILGHMGEGLPYMMYRIDHRIAWVKLPPRYPAKRRFMDYFNENFHITTSGNFRTQTLIDAILEIGADRILFSTDWPFENIDHAADWFNATSIAEADRVKIGRTNARRLFKLDGD
modifications: Dicamba decarboxylase variant
Consider B4, for which the “Fold Activity” value came out at 1.1 in experiment [1] and 1.4 in experiment [2].

B5: 147 (protein)
chain: MAQGKVALEEHFAIPETLQDSAGFVPGDYWKELQHRLLDIQDTRLKLMDAHGIETMILSLAAPAVQAIPDRRKAIEIARRANDFLAEECAKRPDRFLAFAALPMQDVDAATEELQRCVNDLGFVGALVNGFSQEGDGQTPLYYDLPQYRPFWGEVEKLDVPFYLHPRNPLPQDSRIYDGHPWLLGPTWAFAQETAVHALRLMASGLFDEHPRLNIILGHMGEGLPYMMYRIDHRIAWVKLPPRYPAKRRFMDYFNENFHITTSGNFRTQTLIDAILEIGADRILFSTDWPFENIDHAADWFNATSIAEADRLKIGRTNARRLFKLDLD
modifications: Dicamba decarboxylase variant
Regarding B5, the “Fold Activity” value in experiment [1] is on record as 0.8; in experiment [2] it was 1.3.

B6: 152 (protein)
chain: MAQGKVALEEHFAIPETLQDSAGFVPGDYWKELQHRLLDIQDTRLKLMDAHGIETMILSLAAPAVQAIPDRRKAIEIARRANDFLAEECAKRPDRFLAFAALPLQDPDAATEELQRCVNDLGFVGALVNGFSVEGDGQTPLYYDLPQYRPFWGEVEKLDVPFYLHPRNPLPQDSRIYDGHPWLLGPTWAFAQETAVHALRLMASGLFDEHPRLNIILGHMGEGLPYMMYRIDHRIAWVKLPPRYPAKRRFMDYFNENFHITTSGNFRTQTLIDAILEIGADRILFSTDWPFENIDHAADWFNATSIAEADRVKIGRTNARRLFKLDGA
modifications: Dicamba decarboxylase variant
In the case of B6, the results for the “Fold Activity” value in experiment [1] and in experiment [2] were 1.1 and 1.8, respectively.

B7: 146 (protein)
chain: MAQGKVALEEHFAIPETLQDSAGFVPGDYWKELQHRLLDIQDTRLKLMDAHGIETMILSLAAPAVQAIPDRRKAIEIARRANDFLAEECAKRPDRFLAFAALPLQDPDAATEELQRCVNDLGFVGALVNGFSQEGDGQTPLYYDLPQYRPFWGEVEKLDVPFYLHPRNPLPQDSRIYDGHPWLLGPTWAFAQETAVHALRLMASGLFDEHPRLNIILGHMGEGLPYMMYRIDHRIAWVKLPPRYPAKRRFMDYFNENFHITTSGNFRTQTLIDAILEIGADRILFSTDWPFENIDHAADWFNATSIAEADRVKIGRTNARRLFKLDGD
modifications: Dicamba decarboxylase variant
Consider B7, for which the “Fold Activity” value in experiment [1] came to 1.2; in experiment [2], 1.3.

B8: 157 (protein)
chain: MAQGKVALEEHFAIPETLQDSAGFVPGDYWKELQHRLLDIQDTRLKLMDAHGIETMILSLAAPAVQAIPDRRKAIEIARRANDFLAEECAKRPDRFLAFAALPLQDPAAATEELQRCVNDLGFVGALVNGFSVEGDGQTPLYYDLPQYRPFWGEVEKLDVPFYLHPRNPLPQDSRIYDGHPWLLGPTWAFAQETAVHALRLMASGLFDEHPRLNIILGHMGEGLPYMMYRIDHRIAWVHEPPRYPAKRRFMDYFNENFHITTSGNFRTQTLIDAILEIGADRILFSTDWPFENIDHAADWFNATSIAEADRLKIGRTNARRLFKLDGD
modifications: Dicamba decarboxylase variant
As for B8, the “Fold Activity” value in experiment [1] is reported as 1.2; in experiment [2], 1.4.

B9: 155 (protein)
chain: MAQGKVALEEHFAIPETLQDSAGFVPGDYWKELQHRLLDIQDTRLKLMDAHGIETMILSLAAPAVQAIPDRRKAIEIARRANDFLAEECAKRPDRFLAFAALPLQDPDAATEELQRCVNDLGFVGALVNGFSVEGDGQTPLYYDLPQYRPFWGEVEKLDVPFYLHPRNPLPQDSRIYDGHPWLLGPTWAFAQETAVHALRLMASGLFDEHPRLNIILGHLGEGLPYMMYRIDHRIAWVHEPPRYPAKRRFMDYFNENFHITTSGNFRTQTLIDAILEIGADRILFSTDWPFENIDHAADWFNATSIAEADRLKIGRTNARRLFKLDGA
modifications: Dicamba decarboxylase variant
On to B9, for which the “Fold Activity” value is reported as 1.2 in experiment [1] and 1.5 in experiment [2].

B10: 151 (protein)
chain: MAQGKVALEEHFAIPETLQDSAGFVPGDYWKELQHRLLDIQDTRLKLMDAHGIETMILSLAAPAVQAIPDRRKAIEIARRANDFLAEECAKRPDRFLAFAALPLQDPDAATEELQRCVNDLGFVGALVNGFSQEGDGQTPLYYDLPQYRPFWGEVEKLDVPFYLHPRNPLPQDSRIYDGHPWLLGPTWAFAQETAVHALRLMASGLFDEHPRLNIILGHMGEGLPYMMYRIDHRIAWVHQPPRYPAKRRFMDYFNENFHITTSGNFRTQTLIDAILEIGADRILFSTDWPFENIDHAADWFNATSIAEADRVKIGRTNARRLFKLDGD
modifications: Dicamba decarboxylase variant
As for B10, the figures for the “Fold Activity” value in experiment [1] and in experiment [2] were 1.0 and 1.9, respectively.

B11: 154 (protein)
chain: MAQGKVALEEHFAIPETLQDSAGFVPGDYWKELQHRLLDIQDTRLKLMDAHGIETMILSLAAPAVQAIPDRHKAIEIARRANDFLAEECAKRPDRFLAFAALPLQDPDAATEELQRTVNDLGFVGALVNGFSQEGDGQTPLYYDLPQYRPFWGEVEKLDVPFYLHPRNPLPQDSRIYDGHPWLLGPTWAFAQETAVHALRLMASGLFDEHPRLNIILGHMGEGLPYMMYRIDHRIAWVHEPPRYPAKRRFMDYFNENFHITTSGNFRTQTLIDAILEIGADRILFSTDWPFENIDHAADWFNATSIAEADRVKIGRTNARRLFKLDGD
modifications: Dicamba decarboxylase variant
Consider B11, for which the “Fold Activity” value in experiment [1] and in experiment [2] was 1.3 throughout.

B12: 153 (protein)
chain: MAQGKVALEEHFAIPETLQDSAGFVPSEYLKELQHRLLDIQDTRLKLMDAHGIETMILSLAAPAVQAIPDRRKAIEIARRANDFLAEECAKRPDRFLAFAALPLQDVDAATEELQRCVNDLGFVGALVNGFSVEGDGQTPLYYDLPQYRPFWGEVEKLDVPFYLHPRNPLPQDSRIYDGHPWLLGPTWAFAQETAVHALRLMASGLFDEHPRLNIILGHLGEGLPYMMYRIDHRIAWVKLPPRYPAKRRFMDYFNENFHITTSGNFRTQTLIDAILEIGADRILFSTDWPFENIDHAADWFNATSIAEADRLKIGRTNARRLFKLDGD
modifications: Dicamba decarboxylase variant
For the molecule B12, the “Fold Activity” value in experiment [1] is recorded as 1.8; in experiment [2], 1.7.

B13: 156 (protein)
chain: MAQGKVALEEHFAIPETLQDSAGFVPSDYLKELQHRLLDIQDTRLKLMDAHGIETMILSLAAPAVQAIPDRRKAIEIARRANDFLAEECAKRPDRFLAFAALPMQDPDAATEELQRCVNDLGFVGALVNGFSVEGDGQTPLYYDLPQYRPFWGEVEKLDVPFYLHPRNPLPQDSRIYDGHPWLLGPTWAFAQETAVHALRLMASGLFDEHPRLNIILGHLGEGLPYMMYRIDHRIAWVHEPPRYPAKRRFMDYFNENFHITTSGNFRTQTLIDAILEIGADRILFSTDWPFENIDHAADWFNATSIAEADRLKIGRTNARRLFKLDGA
modifications: Dicamba decarboxylase variant
In the case of B13, the “Fold Activity” value in experiment [1] and in experiment [2] was 1.5 in each case.
